According to patent publication US20220363770A1 (Amgen, published 2022):

T1: human PAC1 receptor (human, UniProt P41586 24-468)
T1 sequence: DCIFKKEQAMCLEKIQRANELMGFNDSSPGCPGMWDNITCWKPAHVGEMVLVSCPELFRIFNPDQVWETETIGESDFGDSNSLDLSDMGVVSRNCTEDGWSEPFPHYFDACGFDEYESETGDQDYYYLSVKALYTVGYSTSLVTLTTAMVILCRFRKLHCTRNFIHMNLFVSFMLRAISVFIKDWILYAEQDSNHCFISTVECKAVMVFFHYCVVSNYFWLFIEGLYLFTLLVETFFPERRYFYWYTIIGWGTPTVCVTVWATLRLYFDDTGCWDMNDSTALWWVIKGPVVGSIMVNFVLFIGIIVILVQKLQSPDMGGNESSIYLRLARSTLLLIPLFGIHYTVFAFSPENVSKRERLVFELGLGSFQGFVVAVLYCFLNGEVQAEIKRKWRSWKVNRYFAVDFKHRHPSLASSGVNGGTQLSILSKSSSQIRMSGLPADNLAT

B1: iPS:454873 (bispecific antibody, human IgG1, kappa, lambda, N297G)
light 1: QSVLTQPPSVSAAPGQKVTISCSGSSSNIGNNYVSWYQQLPGTAPKLLIYDNNKRPSGIPDRFSGSKSGTSTTLGITGLQTGDEADYYCGTWDSRLSAVVFGGGTKLTVLGQPKAAPSVTLFPPSSEELQANKATLVCLISDFYPGAVTVAWKADSSPVKAGVETTTPSKQSNNKYAAKSYLSLTPEQWKSHRSYSCQVTHEGSTVEKTVAPTECS
heavy 1: QVQLVESGGGVVQPGRSLRLSCAASGFTFSSFGMHWVRQAPGKGLEWVAVISFDGSIKYSVDSVKGRFTISRDNSKNTLFLQMNSLRAEDTAVYYCARDRLNYYRSFGYYGYHYYGMAVWGQGTTVTVSSASTKGPSVFPLAPSSKSTSGGTAALGCLVKDYFPEPVTVSWNSGALTSGVHTFPAVLQSSGLYSLESVVTVPSSSLGTQTYICNVNHKPSNTKVDKKVEPKSCDKTHTCPPCPAPELLGGPSVFLFPPKPKDTLMISRTPEVTCVVVDVSHEDPEVKFNWYVDGVEVHNAKTKPCEEQYGSTYRCVSVLTVLHQDWLNGKEYKCKVSNKALPAPIEKTISKAKGQPREPQVYTLPPSRKKMTKNQVSLTCLVKGFYPSDIAVEWESNGQPENNYKTTPPVLKSDGSFFLYSKLTVDKSRWQQGNVFSCSVMHEALHNHYTQKSLSLSPGK
light 2: EIVLTQSPATLSLSPGERATLSCRASKAVGFSLHWYQQKPGQAPRLLIKYASQSLSGIPARFSGSGSGTDFTLTISSLEPEDFAVYYCHQSSFLPFTFGPGTKVDIKRTVAAPSVFIFPPSDEQLKSGTASVVCLLNNFYPREAKVQWKVDNALQSGNSQESVTEQDSKDSTYSLESTLTLSKADYEKHKVYACEVTHQGLSSPVTKSFNRGEC
heavy 2: not shown
B2: iPS:454879 (bispecific antibody, human IgG1, kappa, lambda, N297G)
light 1: QSVLTQPPSVSAAPGQKVTISCSGSSSNIGNNYVSWYQQLPGTAPKLLIYDNNKRPSGIPDRFSGSKSGTSTTLGITGLQTGDEADYYCGTWDSRLSAVVFGGGTKLTVLGQPKAAPSVTLFPPSSEELQANKATLVCLISDFYPGAVTVAWKADSSPVKAGVETTTPSKQSNNKYAAKSYLSLTPEQWKSHRSYSCQVTHEGSTVEKTVAPTECS
heavy 1: QVQLVESGGGVVQPGRSLRLSCAASGFTFSSFGMHWVRQAPGKGLEWVAVISFDGSIKYSVDSVKGRFTISRDNSKNTLFLQMNSLRAEDTAVYYCARDRLNYYRSFGYYGYHYYGMAVWGQGTTVTVSSASTKGPSVFPLAPSSKSTSGGTAALGCLVKDYFPEPVTVSWNSGALTSGVHTFPAVLQSSGLYSLESVVTVPSSSLGTQTYICNVNHKPSNTKVDKKVEPKSCDKTHTCPPCPAPELLGGPSVFLFPPKPKDTLMISRTPEVTCVVVDVSHEDPEVKFNWYVDGVEVHNAKTKPCEEQYGSTYRCVSVLTVLHQDWLNGKEYKCKVSNKALPAPIEKTISKAKGQPREPQVYTLPPSRKKMTKNQVSLTCLVKGFYPSDIAVEWESNGQPENNYKTTPPVLKSDGSFFLYSKLTVDKSRWQQGNVFSCSVMHEALHNHYTQKSLSLSPGK
light 2: EIVLTQSPATLSLSPGERATLSCRASKSVGRSLHWYQQKPGQAPRLLIKYASQSLSGIPARFSGSGSGTDFTLTISSLEPEDFAVYYCHQSSRLPFTFGPGTKVDIKRTVAAPSVFIFPPSDEQLKSGTASVVCLLNNFYPREAKVQWKVDNALQSGNSQESVTEQDSKDSTYSLESTLTLSKADYEKHKVYACEVTHQGLSSPVTKSFNRGEC
heavy 2: not shown
B3: iPS:454883 (bispecific antibody, human IgG1, kappa, lambda, N297G)
light 1: QSVLTQPPSVSAAPGQKVTISCSGSSSNIGNNYVSWYQQLPGTAPKLLIYDNNKRPSGIPDRFSGSKSGTSTTLGITGLQTGDEADYYCGTWDSRLSAVVFGGGTKLTVLGQPKAAPSVTLFPPSSEELQANKATLVCLISDFYPGAVTVAWKADSSPVKAGVETTTPSKQSNNKYAAKSYLSLTPEQWKSHRSYSCQVTHEGSTVEKTVAPTECS
heavy 1: QVQLVESGGGVVQPGRSLRLSCAASGFTFSSFGMHWVRQAPGKGLEWVAVISFDGSIKYSVDSVKGRFTISRDNSKNTLFLQMNSLRAEDTAVYYCARDRLNYYRSFGYYGYHYYGMAVWGQGTTVTVSSASTKGPSVFPLAPSSKSTSGGTAALGCLVKDYFPEPVTVSWNSGALTSGVHTFPAVLQSSGLYSLESVVTVPSSSLGTQTYICNVNHKPSNTKVDKKVEPKSCDKTHTCPPCPAPELLGGPSVFLFPPKPKDTLMISRTPEVTCVVVDVSHEDPEVKFNWYVDGVEVHNAKTKPCEEQYGSTYRCVSVLTVLHQDWLNGKEYKCKVSNKALPAPIEKTISKAKGQPREPQVYTLPPSRKKMTKNQVSLTCLVKGFYPSDIAVEWESNGQPENNYKTTPPVLKSDGSFFLYSKLTVDKSRWQQGNVFSCSVMHEALHNHYTQKSLSLSPGK
light 2: EIVLTQSPATLSLSPGERATLSCRASKSVGRSLHWYQQKPGQAPRLLIKYASQSLSGIPARFSGSGSGTDFTLTISSLEPEDFAVYYCHQSSRLPFTFGPGTKVDIKRTVAAPSVFIFPPSDEQLKSGTASVVCLLNNFYPREAKVQWKVDNALQSGNSQESVTEQDSKDSTYSLESTLTLSKADYEKHKVYACEVTHQGLSSPVTKSFNRGEC
heavy 2: not shown
B4: iPS:454877 (bispecific antibody, human IgG1, kappa, lambda, N297G)
light 1: QSVLTQPPSVSAAPGQKVTISCSGSSSNIGNNYVSWYQQLPGTAPKLLIYDNNKRPSGIPDRFSGSKSGTSTTLGITGLQTGDEADYYCGTWDSRLSAVVFGGGTKLTVLGQPKAAPSVTLFPPSSEELQANKATLVCLISDFYPGAVTVAWKADSSPVKAGVETTTPSKQSNNKYAAKSYLSLTPEQWKSHRSYSCQVTHEGSTVEKTVAPTECS
heavy 1: QVQLVESGGGVVQPGRSLRLSCAASGFTFSSFGMHWVRQAPGKGLEWVAVISFDGSIKYSVDSVKGRFTISRDNSKNTLFLQMNSLRAEDTAVYYCARDRLNYYRSFGYYGYHYYGMAVWGQGTTVTVSSASTKGPSVFPLAPSSKSTSGGTAALGCLVKDYFPEPVTVSWNSGALTSGVHTFPAVLQSSGLYSLESVVTVPSSSLGTQTYICNVNHKPSNTKVDKKVEPKSCDKTHTCPPCPAPELLGGPSVFLFPPKPKDTLMISRTPEVTCVVVDVSHEDPEVKFNWYVDGVEVHNAKTKPCEEQYGSTYRCVSVLTVLHQDWLNGKEYKCKVSNKALPAPIEKTISKAKGQPREPQVYTLPPSRKKMTKNQVSLTCLVKGFYPSDIAVEWESNGQPENNYKTTPPVLKSDGSFFLYSKLTVDKSRWQQGNVFSCSVMHEALHNHYTQKSLSLSPGK
light 2: EIVLTQSPATLSLSPGERATLSCRASKSVGRSLHWYQQKPGQAPRLLIKYASQSLSGIPARFSGSGSGTDFTLTISSLEPEDFAVYYCHQSSRLPFTFGPGTKVDIKRTVAAPSVFIFPPSDEQLKSGTASVVCLLNNFYPREAKVQWKVDNALQSGNSQESVTEQDSKDSTYSLESTLTLSKADYEKHKVYACEVTHQGLSSPVTKSFNRGEC
heavy 2: not shown
B5: iPS:454875 (bispecific antibody, human IgG1, kappa, lambda, N297G)
light 1: QSVLTQPPSVSAAPGQKVTISCSGSSSNIGNNYVSWYQQLPGTAPKLLIYDNNKRPSGIPDRFSGSKSGTSTTLGITGLQTGDEADYYCGTWDSRLSAVVFGGGTKLTVLGQPKAAPSVTLFPPSSEELQANKATLVCLISDFYPGAVTVAWKADSSPVKAGVETTTPSKQSNNKYAAKSYLSLTPEQWKSHRSYSCQVTHEGSTVEKTVAPTECS
heavy 1: QVQLVESGGGVVQPGRSLRLSCAASGFTFSSFGMHWVRQAPGKGLEWVAVISFDGSIKYSVDSVKGRFTISRDNSKNTLFLQMNSLRAEDTAVYYCARDRLNYYRSFGYYGYHYYGMAVWGQGTTVTVSSASTKGPSVFPLAPSSKSTSGGTAALGCLVKDYFPEPVTVSWNSGALTSGVHTFPAVLQSSGLYSLESVVTVPSSSLGTQTYICNVNHKPSNTKVDKKVEPKSCDKTHTCPPCPAPELLGGPSVFLFPPKPKDTLMISRTPEVTCVVVDVSHEDPEVKFNWYVDGVEVHNAKTKPCEEQYGSTYRCVSVLTVLHQDWLNGKEYKCKVSNKALPAPIEKTISKAKGQPREPQVYTLPPSRKKMTKNQVSLTCLVKGFYPSDIAVEWESNGQPENNYKTTPPVLKSDGSFFLYSKLTVDKSRWQQGNVFSCSVMHEALHNHYTQKSLSLSPGK
light 2: EIVLTQSPATLSLSPGERATLSCRASRAVSNLHWYQQKPGQAPRLLIKYASQSLSGIPARFSGSGSGTDFTLTISSLEPEDFAVYYCHQSSYLPFTFGPGTKVDIKRTVAAPSVFIFPPSDEQLKSGTASVVCLLNNFYPREAKVQWKVDNALQSGNSQESVTEQDSKDSTYSLESTLTLSKADYEKHKVYACEVTHQGLSSPVTKSFNRGEC
heavy 2: not shown
B6: iPS:454881 (bispecific antibody, human IgG1, kappa, lambda, N297G)
light 1: QSVLTQPPSVSAAPGQKVTISCSGSSSNIGNNYVSWYQQLPGTAPKLLIYDNNKRPSGIPDRFSGSKSGTSTTLGITGLQTGDEADYYCGTWDSRLSAVVFGGGTKLTVLGQPKAAPSVTLFPPSSEELQANKATLVCLISDFYPGAVTVAWKADSSPVKAGVETTTPSKQSNNKYAAKSYLSLTPEQWKSHRSYSCQVTHEGSTVEKTVAPTECS
heavy 1: QVQLVESGGGVVQPGRSLRLSCAASGFTFSSFGMHWVRQAPGKGLEWVAVISFDGSIKYSVDSVKGRFTISRDNSKNTLFLQMNSLRAEDTAVYYCARDRLNYYRSFGYYGYHYYGMAVWGQGTTVTVSSASTKGPSVFPLAPSSKSTSGGTAALGCLVKDYFPEPVTVSWNSGALTSGVHTFPAVLQSSGLYSLESVVTVPSSSLGTQTYICNVNHKPSNTKVDKKVEPKSCDKTHTCPPCPAPELLGGPSVFLFPPKPKDTLMISRTPEVTCVVVDVSHEDPEVKFNWYVDGVEVHNAKTKPCEEQYGSTYRCVSVLTVLHQDWLNGKEYKCKVSNKALPAPIEKTISKAKGQPREPQVYTLPPSRKKMTKNQVSLTCLVKGFYPSDIAVEWESNGQPENNYKTTPPVLKSDGSFFLYSKLTVDKSRWQQGNVFSCSVMHEALHNHYTQKSLSLSPGK
light 2: EIVLTQSPATLSLSPGERATLSCRASKSVGRSLHWYQQKPGQAPRLLIKYASQSLSGIPARFSGSGSGTDFTLTISSLEPEDFAVYYCHQSSRLPFTFGPGTKVDIKRTVAAPSVFIFPPSDEQLKSGTASVVCLLNNFYPREAKVQWKVDNALQSGNSQESVTEQDSKDSTYSLESTLTLSKADYEKHKVYACEVTHQGLSSPVTKSFNRGEC
heavy 2: not shown

Tests used:
human PAC1 receptor = molecular target: T1, human PAC1 receptor; test: cell-based or functional assay
human CGRP receptor = human CGRP receptor (human, UniProt Q16602 23-461; O60894 27-148); test: cell-based or functional assay
human CGRP receptor, sequence (Q16602 23-461 limits assumed, chain 1 of 2): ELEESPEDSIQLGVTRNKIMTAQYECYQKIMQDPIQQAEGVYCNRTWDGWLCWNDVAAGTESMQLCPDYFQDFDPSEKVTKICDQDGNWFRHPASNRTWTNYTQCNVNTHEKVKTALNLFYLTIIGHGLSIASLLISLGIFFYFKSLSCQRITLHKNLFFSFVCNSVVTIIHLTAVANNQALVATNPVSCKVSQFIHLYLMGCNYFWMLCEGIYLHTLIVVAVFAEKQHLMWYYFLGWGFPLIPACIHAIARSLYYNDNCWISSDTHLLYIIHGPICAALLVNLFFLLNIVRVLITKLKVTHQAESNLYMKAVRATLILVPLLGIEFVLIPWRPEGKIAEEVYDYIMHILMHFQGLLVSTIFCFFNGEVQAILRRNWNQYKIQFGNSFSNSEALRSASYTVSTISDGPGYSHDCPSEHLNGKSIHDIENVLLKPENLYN
human CGRP receptor, sequence (O60894 27-148 limits assumed, chain 2 of 2): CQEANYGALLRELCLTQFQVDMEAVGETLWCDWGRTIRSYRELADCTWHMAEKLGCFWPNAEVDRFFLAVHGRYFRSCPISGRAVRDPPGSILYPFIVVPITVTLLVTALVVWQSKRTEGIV

Binder	Fold-improvement over 29G4v22 Ab (human PAC1 receptor)	IC50 (human PAC1 receptor)	Fold-improvement over 4E4 Ab (human CGRP receptor)	IC50 (human CGRP receptor)
B1	4.4 fold	1.32 nM	0.2 fold	2.13 nM
B2	6.7 fold	0.86 nM	0.3 fold	1.37 nM
B3	9 fold	0.64 nM	0.5 fold	1.03 nM
B4	7.2 fold	0.8 nM	0.3 fold	1.49 nM
B5	1.9 fold	3 nM	0.3 fold	1.7 nM
B6	10.9 fold	0.53 nM	0.5 fold	0.93 nM
